We go through 4 sequences from publication PMC3790847.

This data set deals with T1, Fur (ferric uptake regulator) (Shewanella piezotolerans WP3) (UniProt B8CQZ2).
T1 sequence: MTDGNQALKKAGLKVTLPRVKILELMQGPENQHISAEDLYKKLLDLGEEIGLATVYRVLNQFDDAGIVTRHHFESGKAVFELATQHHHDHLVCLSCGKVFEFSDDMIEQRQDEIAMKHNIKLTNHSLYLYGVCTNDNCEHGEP
The experiment in a line: EMSA. The settings on record: 40 mM KCl, 12.5 mM Tris pH 7.5, 125 uM MnCl2, 1.25 mM MgCl2, 5% glycerol, 0.5 mM DTT, 0.01% BSA, 50 ug/ml salmon sperm DNA, 20 C, 30 min; ~0.2 pmol probe and …. (In general: Mobility shift assays separate free from complexed probe on a gel.)
With “CAGGCTGTAATTGACCTTTTTACACGCAGCAAATAACTGCTTTTTTTGCTGTTCATCAAGTAAAGAGATGAGGGTTCCCGGCACGTTACATTCCTTGGCTTGATAATAATCAAGAGGTGAAGTTTGCTATTCAAGATATAGTGCAAATGATAATCATTATTAATAAAAGTGCAACATATAAAGGGAGCGATTATGGAAGCGATAAGTCCTGCTTTTCGATGGATAAGCGTGATAGCGA (double strand) [Crp-like regulator (swp3806) promoter]”, the binding result is “binds”. Consider “TTATTACGTGCAATAAGAAGCTTTAACTTTGCTGAGATAAACAATGAAAGAGGAGTTTCTATCAAACTTTAAATGAATGATACAGCTTGATTTGTTTGTGATCTTTTTGCTTTTGATGGTTACAGGTTTGTTAGTGTTGTGCGCGAGTTCACATTGACAATGTAAATACACGTAAAGAAGTATGAATAAAAACAATTCTCATTTATATTGCAGCCAATTATTAAATGTAGCTTTCATTTTTGGGGTTGGTTATGTCTTTTCAGGCGTCTT (double strand) [TonB receptor (swp5150) promoter]”, for which the binding entry is given as “binds”.

Turning to “TGACCTTAATCACATAAAGCATCTAAAACACCTGCTAAAAATTACGCTGTTAGTTAGCCTTAGAGGTGGAAATAAAATTCCACACACTAAATAAGGGTAAATGAGATTTGTTCTCAAACTAATTCCCTTTTTAGTGATGATTAAAAAACTATTGCAGGGACAAAAATGATGAAATTTTTCAACTTAAGCGCGACTTCAAAAGCGCTACTTACGGCAGGGGTGCTTTCGTTAGCAGTTTCTGGCTGTAGTGGC (double strand) [omcA (swp3277) promoter]”, the binding result is recorded as “binds”. As to “ATAGAGGGGAGCCATAACGGCGAAGGTTACATGGAACTCACCGGCTACTAAGCCGTAACAACCACTCAAACATAAGCTTTATGAAGTATGTAATTGCATTCAAAAAGCAATAGATAAGAATAATTATCATTTACTAAGCTTATGAATATCTTGGATATTTAATGTAGCGCAAGCTAACATTTCGAGTGGACAAAATTCAAACAAGCTTCTAGTCTTTATTGGTAAATTTGAGAACTAGATCACCCCCTAAAAGTTGATCTTGGTCGAT (double strand) [napD (swp4456) promoter]”, the binding entry is “binds”.
